We go through 11 molecules from patent US20200317768A1 (published 2020).

Where a chain is given by its changes, count along the chain named. In names and notes the source's numbering stands.

Experiment [1] deals with T1, human FcγRIIaR extracellular domain, C-terminal His-tag (human, UniProt P12318 34-217).
T1 construct: also called human FcγRIIa (type R); FcgRIIaR
T1 chain: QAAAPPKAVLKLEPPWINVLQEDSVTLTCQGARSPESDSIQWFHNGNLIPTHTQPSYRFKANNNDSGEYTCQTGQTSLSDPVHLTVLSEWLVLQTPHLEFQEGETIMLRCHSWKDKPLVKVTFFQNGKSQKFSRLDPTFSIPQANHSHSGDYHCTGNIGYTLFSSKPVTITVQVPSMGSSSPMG
Description: SPR 25C; FcgR bound per captured antibody, relative to parent B3. As for the experimental part:
(§1) These Fc variants are referred to as B3 variants. B3 variants were expressed and the binding of protein-A purified antibodies to each FcγR (FcγRIIa type H. FcγRIIa type R, FcγRIIb, and FcγRIIIaF) was comprehensively evaluated as follows. Analysis of interaction between each altered antibody and the Fcγ receptor prepared as mentioned above was carried out using BIACORE® T100 (GE Healthcare), BIACORE® T200 (GE Healthcare), BIACORE® A100, or BIACORE® 4000. HBS-EP+(GE Healthcare) was used as the running buffer, and the measurement temperature was set to 25° C. Chips produced by immobilizing Protein A (Thermo Scientific), Protein A/G (Thermo Scientific), or Protein L (ACTIGEN or BioVision) by the amine coupling method to a Series S sensor Chip CM5 or CM4 (GE Healthcare) were used. After capturing of antibodies of interest onto these sensor chips, an Fcγ receptor diluted with the running buffer was allowed to interact, the amount bound to an antibody was measured. However, since the amount of Fcγ receptor bound depends on the amount of the captured antibodies, the amount of Fcγ receptor bound was divided by the amount of each antibody captured to obtain corrected values, and these values were compared. Furthermore, antibodies captured onto the chips were washed by 10 mM glycine-HCl pH1.5, and the chips were regenerated and used repeatedly. […] The value obtained by multiplying this value by 100 was used as an indicator of the relative FcγR-binding activity of each variant.

The target of experiment [2] is T2, human FcγRIIaH extracellular domain, C-terminal His-tag (human, UniProt P12318 34-217).
T2 construct: also called human FcγRIIa (type H); FcgRIIaH
T2 sequence: T1 chain with R134H
The experiment is described as above. As to the method:
as §1

The target in experiment [3] is T3, cynomolgus monkey FcγRIIa1 extracellular domain, His-tagged (cynomolgus monkey).
T3 construct: also called cyno FcγRIIa1; cynoFcgRIIa1; not shown: C-terminal His-tag
T3 chain: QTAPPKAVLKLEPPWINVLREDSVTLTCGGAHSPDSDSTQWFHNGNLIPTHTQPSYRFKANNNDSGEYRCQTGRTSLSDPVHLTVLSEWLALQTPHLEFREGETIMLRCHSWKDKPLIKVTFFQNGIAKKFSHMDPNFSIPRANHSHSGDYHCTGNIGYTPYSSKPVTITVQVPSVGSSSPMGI
Description: SPR (BIACORE), captured antibody, FcgR as analyte. As for the experimental part: (§2) The kinetic analysis of interactions between these antibodies and FcγR was carried out using BIACORE® T200 or BIACORE® 4000 (GE Healthcare). HBS-EP+ (GE Healthcare) was used as the running buffer, and the measurement temperature was set to 25° C. A chip produced by immobilizing Protein A. Protein A/G or mouse anti-human IgG kappa light chain (BD Biosciences) onto a Series S Sensor Chip CM4 or CM5 (GE Healthcare) by the amine-coupling method was used. […] After the measurement, the antibody captured on the chip was washed off by allowing reaction with 10 mM glycine-HCl, pH1.5 and 25 mM NaOH so that the chip was regenerated and used repeatedly. The sensorgrams obtained as measurement results were analyzed by the 1:1 Langmuir binding model using the BIACORE® Evaluation Software to calculate the binding rate constant ka (L/mol/s) and dissociation rate constant kd (l/s), and the dissociation constant KD (mol/L) was calculated from these values. […] Regarding such interactions, KD values were calculated using the following 1:1 binding model described in BIACORE® T100 Software Handbook BR1006-48 Edition AE.

The target of experiment [4] is T4, human FcγRIIaH extracellular domain, His-tagged (human, UniProt P12318 34-217).
T4 construct: also called human FcγRIIa (type H); FcgRIIaH; not shown: C-terminal His-tag
T4 sequence: T1 chain with R134H
Nature of the experiment: SPR (BIACORE), captured antibody, FcgR as analyte. As for the experimental part: as §2
(Surface plasmon resonance follows binding to a sensor surface in real time, without labels.)

Experiment [5] addresses T5, cynomolgus monkey FcγRIIIaS extracellular domain, His-tagged (cynomolgus monkey, UniProt Q8SPW2 21-206 at identity 1.00)).
T5 construct: also called cyno FcγRIIIaS; cynoFcγRIIIaS; not shown: C-terminal His-tag
T5 chain: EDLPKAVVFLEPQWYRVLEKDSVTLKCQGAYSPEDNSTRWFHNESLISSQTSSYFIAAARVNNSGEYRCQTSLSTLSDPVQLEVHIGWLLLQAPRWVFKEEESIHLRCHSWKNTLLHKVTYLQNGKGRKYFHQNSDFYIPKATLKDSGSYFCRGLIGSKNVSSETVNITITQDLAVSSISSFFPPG
Description: SPR (BIACORE), captured antibody, FcgR as analyte. As for the experimental part:
as §2

Experiment [6] concerns the target T6, cynomolgus monkey FcγRIIb extracellular domain, His-tagged (cynomolgus monkey).
T6 construct: also called cyno FcγRIIb; cynoFcγRIIb; not shown: C-terminal His-tag
T6 chain: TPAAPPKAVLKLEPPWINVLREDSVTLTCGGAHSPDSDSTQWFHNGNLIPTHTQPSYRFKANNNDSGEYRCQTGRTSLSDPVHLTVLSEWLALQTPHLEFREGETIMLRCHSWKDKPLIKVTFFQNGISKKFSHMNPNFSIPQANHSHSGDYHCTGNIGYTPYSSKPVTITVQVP
Description: SPR (BIACORE), captured antibody, FcgR as analyte. As to the method: as §2

Experiment [7] concerns the target T7, human FcγRIIIaV extracellular domain, His-tagged (human, UniProt P08637 17-208).
T7 construct: also called FcgRIIIaV; not shown: C-terminal His-tag
Description: SPR (BIACORE), captured antibody, FcgR as analyte. As for the experimental part: as §2

Experiment [8] has as its target T8, cynomolgus monkey FcγRIIa3 extracellular domain, His-tagged (cynomolgus monkey).
T8 construct: also called cyno FcγRIIa3; cynoFcgRIIa3; not shown: C-terminal His-tag
T8 chain: T3 chain with P95T, T121A, A128S, H133P, D135N
Description: SPR (BIACORE), captured antibody, FcgR as analyte. As for the experimental part:
as §2

For experiment [9], the target named is T9, cynomolgus monkey FcγRIIa2 extracellular domain, His-tagged (cynomolgus monkey).
T9 construct: also called cyno FcγRIIa2; cynoFcgRIIa2; not shown: C-terminal His-tag
T9 chain: T3 chain with P95T, T121A, I127K, A128S, K130N, D135N, R142Q
Nature of the experiment: SPR (BIACORE), captured antibody, FcgR as analyte. As to the method: as §2

Experiment [10] has as its target T10, human FcγRIIaR extracellular domain, His-tagged (human, UniProt P12318 34-217).
T10 construct: also called human FcγRIIa (type R); FcgRIIaR; not shown: C-terminal His-tag
T10 chain: T1 chain
Description: SPR (BIACORE), captured antibody, FcgR as analyte. As to the method: as §2

For experiment [11], the target named is T11, human FcγRIIb extracellular domain, His-tagged (human, UniProt P31994 43-217).
T11 construct: also called FcgRIIb (human); not shown: C-terminal His-tag
T11 sequence: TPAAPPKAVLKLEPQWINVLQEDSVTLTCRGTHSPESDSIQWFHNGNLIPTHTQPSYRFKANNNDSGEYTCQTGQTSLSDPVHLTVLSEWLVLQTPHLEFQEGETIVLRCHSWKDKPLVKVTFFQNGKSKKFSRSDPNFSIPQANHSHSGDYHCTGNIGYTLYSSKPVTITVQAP
Nature of the experiment: SPR (BIACORE), captured antibody, FcgR as analyte. As for the experimental part: as §2

T7 sequence (P08637 17-208 F176V): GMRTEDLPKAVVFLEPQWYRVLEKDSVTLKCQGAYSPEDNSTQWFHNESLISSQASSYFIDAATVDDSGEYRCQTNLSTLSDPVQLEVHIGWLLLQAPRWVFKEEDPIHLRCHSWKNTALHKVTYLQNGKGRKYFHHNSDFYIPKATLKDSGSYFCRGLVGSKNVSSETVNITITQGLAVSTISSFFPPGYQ

B1: GpH7-B3 variant A327N/GpL16-k0 (antibody, human IgG1, kappa)
heavy: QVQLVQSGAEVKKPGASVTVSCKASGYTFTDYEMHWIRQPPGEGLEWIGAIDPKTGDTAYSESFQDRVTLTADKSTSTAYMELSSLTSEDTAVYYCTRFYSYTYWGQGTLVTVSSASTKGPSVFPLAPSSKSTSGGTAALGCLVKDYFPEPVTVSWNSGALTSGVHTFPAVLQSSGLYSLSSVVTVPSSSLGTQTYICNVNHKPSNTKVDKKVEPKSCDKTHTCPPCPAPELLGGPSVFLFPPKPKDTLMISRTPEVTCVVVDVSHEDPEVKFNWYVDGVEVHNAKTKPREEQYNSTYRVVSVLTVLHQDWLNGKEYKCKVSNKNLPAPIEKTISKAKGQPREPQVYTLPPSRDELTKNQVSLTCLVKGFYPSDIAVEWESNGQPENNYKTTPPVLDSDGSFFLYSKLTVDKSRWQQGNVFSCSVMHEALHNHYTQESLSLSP
light: DIVMTQSPLSLPVTPGEPASISCQASESLVHSNRNTYLHWYLQKPGQSPQLLIYKVSNRFSGVPDRFSGSGSGTDFTLKISRVEAEDVGVYYCSQNTHVPPTFGQGTKVEIERTVAAPSVFIFPPSDEQLKSGTASVVCLLNNFYPREAKVQWKVDNALQSGNSQESVTEQDSKDSTYSLSSTLTLSKADYEKHKVYACEVTHQGLSSPVTKSFNRGEC
On to B1, for which the figures for the “Binding to human FcgRs (parent B3 = 100)” value in [1] and in [2] were 48 parent B3 = 100 and 95 parent B3 = 100, respectively.

B2: GpH7-B3 variant A330R/GpL16-k0 (antibody, human IgG1, kappa)
heavy: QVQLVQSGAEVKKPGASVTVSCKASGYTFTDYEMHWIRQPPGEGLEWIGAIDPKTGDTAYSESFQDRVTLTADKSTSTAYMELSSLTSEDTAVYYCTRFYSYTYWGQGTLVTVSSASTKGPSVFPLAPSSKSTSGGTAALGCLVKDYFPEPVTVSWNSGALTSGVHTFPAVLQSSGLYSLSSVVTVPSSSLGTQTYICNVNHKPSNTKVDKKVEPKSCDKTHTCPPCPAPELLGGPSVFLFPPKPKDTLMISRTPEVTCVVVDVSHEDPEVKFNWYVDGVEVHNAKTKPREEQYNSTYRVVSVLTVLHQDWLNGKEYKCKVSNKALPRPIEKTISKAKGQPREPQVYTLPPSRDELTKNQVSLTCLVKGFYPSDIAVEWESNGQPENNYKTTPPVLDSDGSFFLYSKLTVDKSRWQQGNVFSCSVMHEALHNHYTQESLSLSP
light: B1 light
B2: the “Binding to human FcgRs (parent B3 = 100)” value in experiment [1] turned out to be 123 parent B3 = 100; in experiment [2], 116 parent B3 = 100.

B3: GpH7-B3 variant G237Y/GpL16-k0 (antibody, human IgG1, kappa)
heavy: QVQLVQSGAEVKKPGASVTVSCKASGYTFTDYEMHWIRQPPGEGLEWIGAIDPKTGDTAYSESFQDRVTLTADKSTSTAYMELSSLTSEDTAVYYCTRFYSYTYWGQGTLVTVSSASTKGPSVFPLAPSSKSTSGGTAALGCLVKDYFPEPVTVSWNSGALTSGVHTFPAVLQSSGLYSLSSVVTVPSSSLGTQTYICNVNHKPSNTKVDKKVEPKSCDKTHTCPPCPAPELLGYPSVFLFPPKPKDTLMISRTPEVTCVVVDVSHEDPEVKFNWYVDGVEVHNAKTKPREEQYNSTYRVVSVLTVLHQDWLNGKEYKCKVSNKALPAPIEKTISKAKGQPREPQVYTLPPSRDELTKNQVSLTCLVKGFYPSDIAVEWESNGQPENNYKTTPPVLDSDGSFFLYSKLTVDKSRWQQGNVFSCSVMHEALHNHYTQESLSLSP
light: B1 light
Turning to B3, the “Binding to human FcgRs (parent B3 = 100)” value in experiment [2] came to 77 parent B3 = 100.

B4: GpH7-B3 variant P271E/GpL16-k0 (antibody, human IgG1, kappa)
heavy: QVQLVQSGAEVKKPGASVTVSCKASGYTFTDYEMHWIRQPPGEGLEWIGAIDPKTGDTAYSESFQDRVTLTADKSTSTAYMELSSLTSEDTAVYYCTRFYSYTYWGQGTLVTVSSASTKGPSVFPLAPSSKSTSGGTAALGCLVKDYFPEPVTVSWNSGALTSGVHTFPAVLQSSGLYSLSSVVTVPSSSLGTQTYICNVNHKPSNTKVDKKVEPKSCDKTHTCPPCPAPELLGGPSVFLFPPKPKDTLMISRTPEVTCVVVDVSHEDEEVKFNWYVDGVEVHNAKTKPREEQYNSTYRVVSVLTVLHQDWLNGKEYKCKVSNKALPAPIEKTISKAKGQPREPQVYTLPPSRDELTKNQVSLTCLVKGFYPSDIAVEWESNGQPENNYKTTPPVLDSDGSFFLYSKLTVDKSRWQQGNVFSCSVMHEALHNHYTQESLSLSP
light: B1 light
In the case of B4, the “Binding to human FcgRs (parent B3 = 100)” value was determined as 51 parent B3 = 100 in [1] and 90 parent B3 = 100 in experiment [2].

B5: GpH7-B3 variant A330K/GpL16-k0 (antibody, human IgG1, kappa)
heavy: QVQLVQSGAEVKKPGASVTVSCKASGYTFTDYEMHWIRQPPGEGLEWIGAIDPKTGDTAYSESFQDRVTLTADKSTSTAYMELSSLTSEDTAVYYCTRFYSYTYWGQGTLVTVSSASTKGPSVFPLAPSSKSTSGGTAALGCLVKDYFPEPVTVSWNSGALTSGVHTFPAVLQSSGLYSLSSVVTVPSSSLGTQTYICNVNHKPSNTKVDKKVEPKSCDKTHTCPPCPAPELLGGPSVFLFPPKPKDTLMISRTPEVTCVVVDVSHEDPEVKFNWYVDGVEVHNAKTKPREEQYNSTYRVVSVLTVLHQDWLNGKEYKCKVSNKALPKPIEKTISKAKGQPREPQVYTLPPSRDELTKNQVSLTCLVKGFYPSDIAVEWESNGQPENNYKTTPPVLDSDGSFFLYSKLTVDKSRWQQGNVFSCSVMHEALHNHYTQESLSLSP
light: B1 light
Turning to B5, the entries for the “Binding to human FcgRs (parent B3 = 100)” value in experiment [1] and in experiment [2] were 127 parent B3 = 100 and 121 parent B3 = 100, respectively.

B6: GpH7-B3 variant N325I/GpL16-k0 (antibody, human IgG1, kappa)
heavy: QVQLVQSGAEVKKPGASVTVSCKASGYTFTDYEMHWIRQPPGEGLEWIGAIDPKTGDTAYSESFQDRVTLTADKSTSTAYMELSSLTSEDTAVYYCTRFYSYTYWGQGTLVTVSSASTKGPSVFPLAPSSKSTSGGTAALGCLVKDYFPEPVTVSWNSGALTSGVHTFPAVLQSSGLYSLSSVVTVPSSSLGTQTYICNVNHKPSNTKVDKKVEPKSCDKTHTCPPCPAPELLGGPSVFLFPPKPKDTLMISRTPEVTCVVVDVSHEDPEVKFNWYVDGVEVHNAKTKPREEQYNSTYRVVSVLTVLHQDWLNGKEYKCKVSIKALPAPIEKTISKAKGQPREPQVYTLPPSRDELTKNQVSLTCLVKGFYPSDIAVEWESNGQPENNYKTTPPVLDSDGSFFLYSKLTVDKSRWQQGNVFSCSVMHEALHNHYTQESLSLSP
light: B1 light
On to B6, for which the “Binding to human FcgRs (parent B3 = 100)” value in experiment [2] came to 76 parent B3 = 100.

B7: GpH7-B3 variant P238E/GpL16-k0 (antibody, human IgG1, kappa)
heavy: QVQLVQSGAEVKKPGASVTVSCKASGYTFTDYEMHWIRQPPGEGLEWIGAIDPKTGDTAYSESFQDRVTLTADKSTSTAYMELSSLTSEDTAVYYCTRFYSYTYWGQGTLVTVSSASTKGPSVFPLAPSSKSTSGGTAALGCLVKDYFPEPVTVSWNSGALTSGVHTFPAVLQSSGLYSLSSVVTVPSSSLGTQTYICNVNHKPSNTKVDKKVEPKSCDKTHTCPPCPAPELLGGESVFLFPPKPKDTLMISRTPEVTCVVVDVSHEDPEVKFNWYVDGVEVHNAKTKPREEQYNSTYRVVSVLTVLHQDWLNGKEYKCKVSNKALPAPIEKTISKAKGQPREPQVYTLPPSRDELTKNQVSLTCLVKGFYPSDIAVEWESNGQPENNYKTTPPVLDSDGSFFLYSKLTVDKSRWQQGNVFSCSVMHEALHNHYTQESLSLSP
light: B1 light
B7: the “Binding to human FcgRs (parent B3 = 100)” value in [1] came out at 2 parent B3 = 100; in experiment [2] it was 21 parent B3 = 100.

B8: GpH7-B3 variant P238M/GpL16-k0 (antibody, human IgG1, kappa)
heavy: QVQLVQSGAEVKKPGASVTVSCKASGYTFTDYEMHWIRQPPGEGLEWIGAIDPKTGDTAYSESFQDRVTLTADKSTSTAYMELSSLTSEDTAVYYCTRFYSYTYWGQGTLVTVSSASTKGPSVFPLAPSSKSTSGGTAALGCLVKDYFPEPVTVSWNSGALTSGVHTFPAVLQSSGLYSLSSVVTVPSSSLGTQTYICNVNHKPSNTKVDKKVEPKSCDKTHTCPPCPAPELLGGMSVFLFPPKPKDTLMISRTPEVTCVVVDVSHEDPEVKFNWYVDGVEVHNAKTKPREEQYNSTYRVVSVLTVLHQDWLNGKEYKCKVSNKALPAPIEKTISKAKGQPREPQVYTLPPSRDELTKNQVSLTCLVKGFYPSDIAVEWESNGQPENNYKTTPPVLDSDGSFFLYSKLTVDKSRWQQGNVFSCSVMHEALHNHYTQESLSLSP
light: B1 light
Regarding B8, the “Binding to human FcgRs (parent B3 = 100)” value in experiment [2] turned out to be 86 parent B3 = 100.

B9: GpH7-B3 variant N325L/GpL16-k0 (antibody, human IgG1, kappa)
heavy: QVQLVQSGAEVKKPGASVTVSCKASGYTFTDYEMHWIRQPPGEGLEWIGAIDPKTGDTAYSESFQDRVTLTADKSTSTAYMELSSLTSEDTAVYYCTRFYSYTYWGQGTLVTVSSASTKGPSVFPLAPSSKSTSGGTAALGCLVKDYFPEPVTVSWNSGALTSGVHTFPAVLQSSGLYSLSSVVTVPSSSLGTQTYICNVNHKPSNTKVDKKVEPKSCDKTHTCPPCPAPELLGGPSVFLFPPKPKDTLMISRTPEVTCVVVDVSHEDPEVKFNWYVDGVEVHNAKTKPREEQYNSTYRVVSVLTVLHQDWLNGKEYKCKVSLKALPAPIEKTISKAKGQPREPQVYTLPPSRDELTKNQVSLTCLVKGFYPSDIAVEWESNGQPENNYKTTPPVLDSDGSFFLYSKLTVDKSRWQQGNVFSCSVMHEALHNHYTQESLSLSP
light: B1 light
As to B9, the “Binding to human FcgRs (parent B3 = 100)” value in [1] is 13 parent B3 = 100; in experiment [2], 93 parent B3 = 100.

B10: M103205H795-MY449/M103202L889-SK1 (antibody, human IgG1, kappa)
heavy: QVTLKESGPVLVKPTETLTLTCTVSGIDLSHDDISWVRQAPGKGLEWVGIISYAGSTYYASWAKGRLTISKDTSKNQVVLTMTNMDPVDTATYYCARGVPAYSHGGDLWGQGTLVTVSSASTKGPSVFPLAPSSKSTSGGTAALGCLVKDYFPEPVTVSWNSGALTSGVHTFPAVLQSSGLYSLSSVVTVPSSSLGTQTYICNVNHKPSNTKVDKKVEPKSCDKTHTCPPCPALELLTGPSVFLFPPKPKDTLMISRTPEVTCVVVDVSDEDPEVKFNWYVDGVEVHNAKTKPREEQYNSTYRVVSVLTVLHQDWLNGKEYKCKVSNKALPKPIEKTISKAKGQPREPQVYTLPPSREEMTKNQVSLTCLVKGFYPSDIAVEWESNGQPENNYKTTPPVLDSDGSFFLYSKLTVDKSRWQQGNVFSCSVMHEALHNHYTQKSLSLSP
light: DIVMTQSPATLSLSPGERATLSCTSSQSVYHANWLSWFQQKPGQPPKLLIYWASTLAYGVPSRFSGSGSGTDFTLTISSLQPEDAATYYCAGGYGGGRYAFGQGTKVEIKRTVAAPSVFIFPPSDEQLKSGTASVVCLLNNFYPREAKVQWKVDNALQSGNSQESVTEQDSKDSTYSLSSTLTLSKADYEKHKVYACEVTHQGLSSPVTKSFNRGEC
notes: copies: 2 + 2
As usually defined, the Kd is the free concentration of one partner at which half of the binding sites on the other are occupied at equilibrium, for simple one-to-one binding. Consider B10, for which the Kd worked out at 870 nM in experiment [3]; 93 nM in experiment [4]; 1000 nM in experiment [5]; 230 nM in experiment [6]; 3700 nM in [7]; 1500 nM in [8]. Moreover, the equilibrium dissociation constant (Kd) worked out at 940 nM in experiment [9], 74 nM in experiment [10] and 290 nM in [11].

B11: M103205H795-MY450/M103202L889-SK1 (antibody, human IgG1, kappa)
heavy: B10 heavy with L234M
light: B10 light
notes: copies: 2 + 2
B11: the Kd in experiment [3] stood at 1300 nM; in experiment [4], 130 nM; in [5], 1800 nM; in experiment [6], 280 nM; in experiment [7], 4000 nM; in experiment [8], 2200 nM. Besides, the Kd turned out to be 1100 nM in [9], 120 nM in [10] and 470 nM in experiment [11].
